Values of other authors as cited in article PMC10631023.
Values joined by “and” are separate entries in the source; they are usually repeats but may differ in a detail not shown here. Equal values may be shown once.

How the values were obtained:
[1] = biological target: VSIG-3 (Homo sapiens) (UniProt Q5DX21)
[2] = biological target: PSGL-1 (Homo sapiens) (UniProt Q14242)
UniProt Q14242, sequence (Q14242 42-320): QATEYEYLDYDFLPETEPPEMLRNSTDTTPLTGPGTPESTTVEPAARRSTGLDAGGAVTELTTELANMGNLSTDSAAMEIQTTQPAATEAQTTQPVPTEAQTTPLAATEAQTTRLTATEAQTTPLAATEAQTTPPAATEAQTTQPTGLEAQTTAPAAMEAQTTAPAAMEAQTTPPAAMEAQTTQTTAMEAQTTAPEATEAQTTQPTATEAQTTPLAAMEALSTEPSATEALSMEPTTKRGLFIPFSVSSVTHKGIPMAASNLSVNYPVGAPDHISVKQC

UniProt Q5DX21, sequence (Q5DX21 23-241): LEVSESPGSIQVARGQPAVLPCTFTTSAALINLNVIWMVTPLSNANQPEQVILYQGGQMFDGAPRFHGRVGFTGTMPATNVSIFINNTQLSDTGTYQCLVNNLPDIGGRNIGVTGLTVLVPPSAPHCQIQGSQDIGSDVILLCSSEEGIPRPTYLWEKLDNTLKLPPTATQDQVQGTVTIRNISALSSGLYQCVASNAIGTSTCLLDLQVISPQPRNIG

Kd [1]: 20 nM and 80 nM
Kd [2]: 4 nM
Substance: VISTA (from UniProt Q9H7M9)
